Biological target: GST-fusion protein containing the UBA domain of Dsk2p (residues 328–373) (UniProt P48510)
Assay: pull-down

UniProt P48510, sequence (P48510 328-373): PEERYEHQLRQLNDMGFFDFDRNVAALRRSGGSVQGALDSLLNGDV

Substance: endogenous GLUT4 in 3T3-L1 adipocytes (ubiquitinated) (from UniProt P14142 1-509) (natural protein)
- percent of total cellular GLUT4 pulled down by GST–UBA (taken as ubiquitinated): 0.1%
